Results on 3 molecules are retold here after article PMC5829831, “Structural Basis for DNA Recognition by the Two-Component Response Regulator RcsB” (mBio, 2018).

Data set [1] deals with the molecule itself. The data set is described as follows: SEC-MALS; RcsB in the presence of the 22-bp DNA duplex DNA22, with and without CPh; RcsB and DNA 1 mg/ml; Superdex 75 10/300 GL; 10 mM Tris-HCl pH 8.3, 150 mM NaCl, 0.5 mM TCEP; 22°C. In general terms: In gel filtration, larger molecules generally elute earlier.
Data set [2] addresses T1, RcsB (Escherichia coli str. K-12 substr. …, UniProt P0DMC7 1-216).
T1 sequence: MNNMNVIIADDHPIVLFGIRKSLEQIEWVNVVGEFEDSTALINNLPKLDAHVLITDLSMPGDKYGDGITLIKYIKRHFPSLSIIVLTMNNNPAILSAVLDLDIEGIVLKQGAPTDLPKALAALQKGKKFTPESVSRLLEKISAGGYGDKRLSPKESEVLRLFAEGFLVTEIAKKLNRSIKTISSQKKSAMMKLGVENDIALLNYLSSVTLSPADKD
As to the kind of experiment: X-ray crystallography; unphosphorylated, 3.37 A; tetramer on two DNAs; EMSA: 10 mM Tris pH 7.5, 40 mM KCl, 1 mM DTT, 10 mM MgCl2, 5% glycerol, 0.1 ug/ul BSA, room temp; SPR: 10 mM Tris-HCl pH 8.3, 150 mM NaCl, 0.5 mM TCEP, 25 C. To be noted: protein: recombinant; tags: N-terminal 6xHis (pCA24n, ASKA clone); chain copies: 2; blunt.

Data set [3] concerns the target T1, RcsB. The data set is described as follows: SPR; no CPh; EMSA: 10 mM Tris pH 7.5, 40 mM KCl, 1 mM DTT, 10 mM MgCl2, 5% glycerol, 0.1 ug/ul BSA, room temp; SPR: 10 mM Tris-HCl pH 8.3, 150 mM NaCl, 0.5 mM TCEP, 25 C. To be noted: protein: recombinant; tags: N-terminal 6xHis (pCA24n, ASKA clone); chain copies: 2; label: biotin (SPR); blunt. On the technique in general: SPR reads the build-up and loss of mass on a sensor chip optically.

B1: RcsB, two-component response regulator of the Rcs phosphorelay system (natural protein, E. coli, UniProt P0DMC7 1-216, looked up)
chain: T1 sequence
notes: RcsB from Escherichia coli, full length, REC domain, linker and HTH domain; theoretical mass of the monomer 24 kDa; In some samples carbamoyl phosphate (CPh) and MgCl2 were added to phosphorylate D56; also called RcsB* (in the presence of phosphodonor); unphosphorylated RcsB; source: purified RcsB
With B1, the stoichiometry N – broadly, a count of units in the complex or per binding partner – in data set [1] was determined as 2.

B2: DNA18 (flhDC RcsAB box) (dsDNA)
DNA 1: TTTAGGAAAAATCTTAGA
DNA 2: TCTAAGATTTTTCCTAAA
As to B2, in the data set with RcsB [2], the binding result is “binds”.

B3: DNA22, biotinylated (dsDNA)
DNA 1: GATTTAGGAAAAATCTTAGATA
DNA 2: TATCTAAGATTTTTCCTAAATC
Consider B3, for which, in the data set with RcsB [3], the Kd (usually a measure of binding affinity in units of concentration) is approximately 5.34 µM.
